Experimental data taken from the supplement of paper PMC9112550, “Optimization of the antimicrobial peptide Bac7 by deep mutational scanning” (BMC Biology, 2022).
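Note: peptides expressed intracellularly from a pBAD plasmid library in pooled LB shake-flask culture, induced with 0.3% L-arabinose, DNA abundance read by NGS, three biological replicates, DESeq2 with apeglm shrinkage.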

What follows are sequences tested on Escherichia coli TOP10 (assay: shrunken log2 fold change of peptide-encoding DNA abundance (4.5 h post-induction vs induction); higher = less antimicrobial activity (less host growth inhibition)). Details: time post-induction: 4.5 h; library: site-saturation at positions 5, 18, 19, 20.
RRIRQRPPRLPRPRPRPMREPRP was tested, and the “shrunken log2 fold change” value was 0.0211.
In the case of RRIRDRPPRLPRPRPRPQSQPRP, the “shrunken log2 fold change” value is reported as 0.112.
For RRIRGRPPRLPRPRPRPWQVPRP, the “shrunken log2 fold change” value was -0.00145.
For RRIRARPPRLPRPRPRPLSMPRP, the “shrunken log2 fold change” value was -0.129.
With RRIRQRPPRLPRPRPRPSGSPRP the “shrunken log2 fold change” value was -0.0833.
In the case of RRIRVRPPRLPRPRPRPPVMPRP, the “shrunken log2 fold change” value is reported as -0.105.
RRIRYRPPRLPRPRPRPTFDPRP was tested, and the “shrunken log2 fold change” value was -0.76.
RRIRWRPPRLPRPRPRPTGGPRP was tested, and the “shrunken log2 fold change” value was 0.511.
RRIRRRPPRLPRPRPRPNFKPRP was tested, and the “shrunken log2 fold change” value was 0.092.
With RRIRIRPPRLPRPRPRPYRQPRP the “shrunken log2 fold change” value was -0.326.
RRIRCRPPRLPRPRPRPIHCPRP was tested, and the “shrunken log2 fold change” value was -0.0192.
RRIRNRPPRLPRPRPRPEQEPRP was tested, and the “shrunken log2 fold change” value was 0.0175.
With RRIRMRPPRLPRPRPRPQVGPRP the “shrunken log2 fold change” value was 0.12.
For RRIRVRPPRLPRPRPRPMMLPRP, the “shrunken log2 fold change” value was -0.0127.
For RRIRFRPPRLPRPRPRPIARPRP, the “shrunken log2 fold change” value was 0.00909.
In the case of RRIRMRPPRLPRPRPRPGKLPRP, the “shrunken log2 fold change” value is reported as 0.515.
With RRIRWRPPRLPRPRPRPTMPPRP the “shrunken log2 fold change” value was 0.256.
For RRIRRRPPRLPRPRPRPDRTPRP, the “shrunken log2 fold change” value was 0.222.
In the case of RRIRERPPRLPRPRPRPTWIPRP, the “shrunken log2 fold change” value is reported as -0.268.
With RRIRKRPPRLPRPRPRPCIIPRP the “shrunken log2 fold change” value was -0.108.
In the case of RRIRFRPPRLPRPRPRPRGNPRP, the “shrunken log2 fold change” value is reported as -0.0828.
RRIRYRPPRLPRPRPRPLIRPRP was tested, and the “shrunken log2 fold change” value was -0.85.
For RRIRKRPPRLPRPRPRPLMQPRP, the “shrunken log2 fold change” value was -0.134.
In the case of RRIRPRPPRLPRPRPRPIVAPRP, the “shrunken log2 fold change” value is reported as 0.133.
With RRIRRRPPRLPRPRPRPMRGPRP the “shrunken log2 fold change” value was 1.38.
RRIRVRPPRLPRPRPRPNLFPRP was tested, and the “shrunken log2 fold change” value was -0.355.
With RRIRFRPPRLPRPRPRPMNHPRP the “shrunken log2 fold change” value was -0.327.
RRIRIRPPRLPRPRPRPEFRPRP was tested, and the “shrunken log2 fold change” value was 0.239.
With RRIRCRPPRLPRPRPRPEFPPRP the “shrunken log2 fold change” value was 0.278.
In the case of RRIRRRPPRLPRPRPRPPNWPRP, the “shrunken log2 fold change” value is reported as 0.581.
RRIRARPPRLPRPRPRPEMKPRP was tested, and the “shrunken log2 fold change” value was 3.7.
RRIRWRPPRLPRPRPRPRSTPRP was tested, and the “shrunken log2 fold change” value was 0.551.
RRIRSRPPRLPRPRPRPEWTPRP was tested, and the “shrunken log2 fold change” value was 0.329.
RRIRRRPPRLPRPRPRPSFGPRP was tested, and the “shrunken log2 fold change” value was 0.365.
With RRIRHRPPRLPRPRPRPIKYPRP the “shrunken log2 fold change” value was -0.194.
For RRIRARPPRLPRPRPRPNTDPRP, the “shrunken log2 fold change” value was -0.127.
For RRIRTRPPRLPRPRPRPNATPRP, the “shrunken log2 fold change” value was 0.469.
In the case of RRIRWRPPRLPRPRPRPYARPRP, the “shrunken log2 fold change” value is reported as 0.101.
RRIRPRPPRLPRPRPRPIECPRP was tested, and the “shrunken log2 fold change” value was -0.206.
With RRIRVRPPRLPRPRPRPSSDPRP the “shrunken log2 fold change” value was -0.131.
For RRIRPRPPRLPRPRPRPMSCPRP, the “shrunken log2 fold change” value was -0.043.
With RRIRPRPPRLPRPRPRPAVRPRP the “shrunken log2 fold change” value was -0.246.
With RRIRHRPPRLPRPRPRPTCMPRP the “shrunken log2 fold change” value was -0.184.
In the case of RRIRSRPPRLPRPRPRPACRPRP, the “shrunken log2 fold change” value is reported as 0.212.
In the case of RRIRKRPPRLPRPRPRPWHEPRP, the “shrunken log2 fold change” value is reported as -0.0363.
In the case of RRIRDRPPRLPRPRPRPPRMPRP, the “shrunken log2 fold change” value is reported as 0.345.
RRIRLRPPRLPRPRPRPMNGPRP was tested, and the “shrunken log2 fold change” value was -0.618.
In the case of RRIRDRPPRLPRPRPRPWVLPRP, the “shrunken log2 fold change” value is reported as -0.00957.
In the case of RRIRHRPPRLPRPRPRPKFLPRP, the “shrunken log2 fold change” value is reported as 0.0327.
With RRIRRRPPRLPRPRPRPEIDPRP the “shrunken log2 fold change” value was -0.00263.
For RRIRMRPPRLPRPRPRPGRSPRP, the “shrunken log2 fold change” value was 0.303.
RRIRTRPPRLPRPRPRPAAYPRP was tested, and the “shrunken log2 fold change” value was -0.000154.
With RRIRCRPPRLPRPRPRPCNPPRP the “shrunken log2 fold change” value was -0.23.
With RRIRERPPRLPRPRPRPNASPRP the “shrunken log2 fold change” value was -0.0996.
For RRIRNRPPRLPRPRPRPMIEPRP, the “shrunken log2 fold change” value was 0.00437.
With RRIRKRPPRLPRPRPRPTHDPRP the “shrunken log2 fold change” value was -0.101.
RRIRCRPPRLPRPRPRPRMWPRP was tested, and the “shrunken log2 fold change” value was 0.0419.
RRIRPRPPRLPRPRPRPMCQPRP was tested, and the “shrunken log2 fold change” value was 0.27.
With RRIRGRPPRLPRPRPRPISNPRP the “shrunken log2 fold change” value was 0.0729.
RRIRKRPPRLPRPRPRPFRFPRP was tested, and the “shrunken log2 fold change” value was 0.125.
In the case of RRIRHRPPRLPRPRPRPVITPRP, the “shrunken log2 fold change” value is reported as 0.0477.
In the case of RRIRTRPPRLPRPRPRPNAWPRP, the “shrunken log2 fold change” value is reported as 0.0447.
With RRIRLRPPRLPRPRPRPWKNPRP the “shrunken log2 fold change” value was -0.114.
In the case of RRIRDRPPRLPRPRPRPKPQPRP, the “shrunken log2 fold change” value is reported as 0.111.
With RRIRLRPPRLPRPRPRPQWLPRP the “shrunken log2 fold change” value was -0.141.
With RRIRIRPPRLPRPRPRPTAEPRP the “shrunken log2 fold change” value was -0.0333.
For RRIRRRPPRLPRPRPRPINHPRP, the “shrunken log2 fold change” value was -0.273.
RRIRLRPPRLPRPRPRPTNSPRP was tested, and the “shrunken log2 fold change” value was -0.355.
In the case of RRIRERPPRLPRPRPRPTASPRP, the “shrunken log2 fold change” value is reported as -0.15.
For RRIRSRPPRLPRPRPRPIWGPRP, the “shrunken log2 fold change” value was 0.0936.
RRIRQRPPRLPRPRPRPWVYPRP was tested, and the “shrunken log2 fold change” value was -0.264.
For RRIRYRPPRLPRPRPRPLFEPRP, the “shrunken log2 fold change” value was -0.414.
In the case of RRIRMRPPRLPRPRPRPSGVPRP, the “shrunken log2 fold change” value is reported as 0.0246.
RRIRYRPPRLPRPRPRPAAIPRP was tested, and the “shrunken log2 fold change” value was -0.092.
For RRIRNRPPRLPRPRPRPTCLPRP, the “shrunken log2 fold change” value was -0.0993.
